T1: P(T46G,Y94F)-L(6)-Ss* PvuII/I-SceI fusion protein (artificial (Proteus vulgaris PvuII; …)
T1 chain: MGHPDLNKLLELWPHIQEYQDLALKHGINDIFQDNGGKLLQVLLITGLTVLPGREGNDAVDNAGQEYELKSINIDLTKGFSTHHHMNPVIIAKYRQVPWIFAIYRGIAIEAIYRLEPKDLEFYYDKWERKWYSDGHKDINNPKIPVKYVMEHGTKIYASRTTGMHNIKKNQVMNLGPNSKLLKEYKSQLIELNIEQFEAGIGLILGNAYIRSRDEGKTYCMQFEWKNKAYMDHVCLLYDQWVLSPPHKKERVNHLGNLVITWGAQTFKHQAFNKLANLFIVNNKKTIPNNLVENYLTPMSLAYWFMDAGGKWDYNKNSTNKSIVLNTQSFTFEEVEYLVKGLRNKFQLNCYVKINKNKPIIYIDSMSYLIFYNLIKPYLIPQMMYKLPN

B1: S, I-SceI site only (dsDNA)
DNA 1: TAGGGATAACAGGGTAAT
DNA 2: ATTACCCTGTTATCCCTA
B2: S6P6S tripartite site I-SceI-PvuII-I-SceI (dsDNA)
DNA 1: TAGGGATAACAGGGTAATGGTACTCAGCTGATTCATATTACCCTGTTATCCCTA
DNA 2: TAGGGATAACAGGGTAATATGAATCAGCTGAGTACCATTACCCTGTTATCCCTA

Target: T1, P(T46G,Y94F)-L(6)-Ss* PvuII/I-SceI …
Test: EMSA; 1-150 nM enzyme, 2 nM DNA, KG buffer without Mg, room temperature
Conditions: tags: C-terminal Strep-tag (vector pASK-IBA63b-plus), chain copies: 2 (inferred, PvuII homodimer)
Description: For the determination of binding constants of the fusion enzymes, EMSAs with radioactive labeled PCR-fragments were done. The shift fragments were created via PCR using [α³²P] dATP. One fragment contained the addressed site (S6P6S; A), just an I-SceI site (S; B) or just a PvuII site (P; C). 2 nM of the radiolabeled substrate were incubated with fusion enzyme at concentrations ranging from 1-150 nM in optimized KG Buffer without magnesium for 30 min at room temperature. After adding 1 μl 87% glycerol the samples were loaded onto a 6% polyacrylamid Tris-Acetate (pH 8.5) gel and run for 2 h at 10V/cm. The bands were visualized using the InstantImager system (Packard).

Binder	binding result (label: 32P (PCR fragment))	binding result (label: 32P (EMSA PCR fragment))
B1	no binding	–
B2	–	binds

— patent US20140208457, “Nuclease Fusion Protein and Uses Thereof” (BASF PLANT SCIENCE COMPANY GMBH, published 2014)
